Results from paper PMC11189929, “Non-consecutive enzyme interactions within TCA cycle supramolecular assembly regulate carbon-nitrogen metabolism” (Nature Communications, 2024).

Key:
Escherichia coli MDH = biological target: T1, Escherichia coli MDH (Escherichia coli, UniProt P61889); set-up: Purified MDH activity, NADH oxidation at 340 nm with varied oxaloacetate, 150 uM NADH, pH 7.4, Michaelis-Menten fit; settings: substrate; read-out: KM (oxaloacetate)
T1 construct: C-terminal His6 tag, pET24a, expressed in E. coli BL21(DE3)
T1 sequence (P61889 1-312): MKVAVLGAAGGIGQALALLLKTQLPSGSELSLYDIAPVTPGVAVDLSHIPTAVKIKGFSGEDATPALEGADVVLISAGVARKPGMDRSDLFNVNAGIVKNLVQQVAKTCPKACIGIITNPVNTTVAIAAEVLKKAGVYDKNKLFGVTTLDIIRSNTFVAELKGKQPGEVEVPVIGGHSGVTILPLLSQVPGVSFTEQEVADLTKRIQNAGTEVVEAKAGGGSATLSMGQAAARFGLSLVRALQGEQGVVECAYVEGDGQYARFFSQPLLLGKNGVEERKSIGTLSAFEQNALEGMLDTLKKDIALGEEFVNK
Description: (§1) Determination of MDH activity was based on spectroscopic assays (30). […] Specifically, a range of oxaloacetate (Sigma) concentrations (7.5–250 µM), 150 µM NADH (Sigma), 5 nM MDH in 0.1 M sodium phosphate buffer, pH 7.4 were used. […] The catalytic parameters, kcat and KM, were calculated by fitting the data using non-linear regression to Michaelis-Menten equation, v0 = (kcat·[E]·[S])/(KM + [S]), where v0 is initial velocity, [E] is MDH concentration, [S] is […]. Original and mutated mdh genes used in the study are summarized in Supplementary Data 1. B. subtilis mdh gene was amplified by PCR from the chromosomal DNA of B. subtilis PY79. Nucleotide sequences of orthologous mdhs were collected from the KEGG database (https://www.genome.jp/), synthesized by GENEWIZ^© and cloned into i) pHT254 B. subtilis expression vector (MoBiTec Molecular Biotechnology), and ii) pET24a E. coli expression vector (Merck-Novagen) using Gibson assembly. […] All MDH proteins were tagged with Hisx6t at the C-terminal end. Mdh genes cloned into pHT254 plasmid were transformed into B. subtilis PY79. Mdh genes cloned into pET24a plasmid were transformed into E. coli Bl21(DE3) strain.

purified protein [1] = substrate: O=C(O)CC(=O)C(=O)O; experiment: purified protein; type: biochemical, Oceanobacillus iheyensis; settings: 150 uM NADH, oxaloacetate 7.5-250 uM, 5 nM MDH, 0.1 M sodium phosphate pH 7.4
[2] = substrate: O=C(O)CC(=O)C(=O)O; experiment: purified protein, by the assay type; set-up: Purified MDH activity, NADH oxidation at 340 nm with varied oxaloacetate, 150 uM NADH, pH 7.4, Michaelis-Menten fit; settings: pH 7.4
Description: as §1

[3] = biological target: T2, isocitrate dehydrogenase (ICD) from Bacillus subtilis (B. subtilis) (UniProt P39126)
T2 sequence: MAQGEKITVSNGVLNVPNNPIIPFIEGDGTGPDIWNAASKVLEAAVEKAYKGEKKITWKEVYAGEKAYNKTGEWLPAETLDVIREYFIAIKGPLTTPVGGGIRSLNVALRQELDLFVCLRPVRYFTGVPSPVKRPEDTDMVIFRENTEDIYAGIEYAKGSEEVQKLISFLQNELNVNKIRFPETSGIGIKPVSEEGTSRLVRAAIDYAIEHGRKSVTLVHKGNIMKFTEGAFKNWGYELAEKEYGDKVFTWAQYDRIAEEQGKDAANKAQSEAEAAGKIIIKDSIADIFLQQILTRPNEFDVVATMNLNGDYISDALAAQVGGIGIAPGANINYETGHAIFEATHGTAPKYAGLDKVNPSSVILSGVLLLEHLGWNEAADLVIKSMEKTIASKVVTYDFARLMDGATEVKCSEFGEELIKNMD

[4] = biological target: T2, isocitrate dehydrogenase (ICD) from Bacillus subtilis (B. subtilis); remark: listed apart in the source
purified protein [5] = substrate: O=C(O)CC(=O)C(=O)O; experiment: purified protein; type: biochemical, Bacillus subtilis; settings: 150 uM NADH, oxaloacetate 7.5-250 uM, 5 nM MDH, 0.1 M sodium phosphate pH 7.4

**Q.** `O=C(O)CC(=O)C(=O)O` [oxaloacetate] was tested. Which Km (Escherichia coli MDH) did it give?
**A.** Its Km is 39 µM.

B1: O. iheyensis MDH (OceMDH) (Oceanobacillus iheyensis HTE831) (protein)
chain: MGLKRKKISVIGSGFTGATTALMVAQKELGDVVLVDIPDMEDPTKGKALDMAEAAPVQGFDAKITGTSNYADTEGSDLVIITAGIARKPGMSRDDLVNTNANIMKSVTKEIVHYSPNTTIVVLTNPVDAMTYTVFKESGLPKERVIGQSGILDTARFRTFVAEELNLSVKDVTGFVLGGHGDDMVPLIRYSYAGGIPLEKLIPQERLDAIVQRTRTGGGEIVNLLGNGSAYYAPAASLTVMAEAILKDQRRVLPTIAYLEGEYGYQDIYLGVPTILGGEGIEEIIELDLTKEEKAQLDKSADSVKNVLNVLQ
notes: 34,592 Da printed
**Q.** Which Km (purified protein [1]) does the source give for B1 here?
**A.** Its Km is 23 µM.

**Q.** What about the kcat (purified protein [1]) of the same molecule?
**A.** The kcat was 249 s⁻¹.

B2: Geobacillus kaustophilus MDH (Geobacillus kaustophilus HTA426) (protein)
chain: MAMKRKKISVIGAGFTGATTAFLLAQKELGDVVLVDIPQLENPTKGKALDMLEASPVLGFDANIIGTSDYADTADSDIVVITAGIARKPGMSRDDLVTTNQKIMKQVTKEVVKYSPNCYIIVLTNPVDAMTYTVFQESGFPKNRVIGQSGVLDTARFRTFVAEELNISVKDVTGFVLGGHGDDMVPLVRYSYAGGIPLEKLIPKDRLDAIVERTRKGGGEIVNLLGNGSAYYAPAASLVEMVEAILKDQRRILPAIAYLEGEYGYEGIYLGVPTILGGNGIEKVIELELTEEEKAALAKSVESVKNVMRMLE
notes: C-terminal His6 tag, pET24a, expressed in E. coli BL21(DE3)
**Q.** With B2 as the molecule, how does the Km [2] read?
**A.** Its Km is 54 µM.

**Q.** And the kcat [2]?
**A.** The kcat was 59 s⁻¹.

**Q.** And the kcat/Km [2]?
**A.** The kcat/Km was 1.1e+06 M⁻¹ s⁻¹.

B3: malate dehydrogenase (MDH) from Bacillus subtilis (enzyme)
chain: MGNTRKKVSVIGAGFTGATTAFLIAQKELADVVLVDIPQLENPTKGKALDMLEASPVQGFDAKITGTSNYEDTAGSDIVVITAGIARKPGMSRDDLVSTNEKIMRSVTQEIVKYSPDSIIVVLTNPVDAMTYAVYKESGFPKERVIGQSGVLDTARFRTFVAEELNLSVKDVTGFVLGGHGDDMVPLVRYSYAGGIPLETLIPKERIDAIVERTRKGGGEIVNLLGNGSAYYAPAASLTEMVEAILKDQRRVLPTIAYLEGEYGYEGIYLGVPTIVGGNGLEQIIELELTDYERAQLNKSVESVKNVMKVLS
**Q.** Which partitioning of 2-oxoglutarate towards the droplet phase against the continuous phase, droplets with 1:500 molar excess of MDH, after 40 min of incubation [3] does the source give for B3 here?
**A.** Its partitioning of 2-oxoglutarate towards the droplet phase against the continuous phase, droplets with 1:500 molar excess of MDH, after 40 min of incubation is 2 fold.

**Q.** What about the rate of 2-oxoglutarate formation by ICD within BSA/PEG LLPS droplets, MDH/ICD molar ratios 1:1, 10:1, 50:1, 100:1, 250:1 and 500:1 (~10% enhancement at 10:1; plateau at and above 250:1) [4] of the same molecule?
**A.** Its rate of 2-oxoglutarate formation by ICD within BSA/PEG LLPS droplets, MDH/ICD molar ratios 1:1, 10:1, 50:1, 100:1, 250:1 and 500:1 (~10% enhancement at 10:1; plateau at and above 250:1) is 180%.

B4: B. subtilis MDH (BsMDH) (Bacillus subtilis subsp. subtilis str. 168) (protein)
chain: GNTRKKVSVIGAGFTGATTAFLIAQKELADVVLVDIPQLENPTKGKALDMLEASPVQGFDAKITGTSNYEDTAGSDIVVITAGIARKPGMSRDDLVSTNEKIMRSVTQEIVKYSPDSIIVVLTNPVDAMTYAVYKESGFPKERVIGQSGVLDTARFRTFVAEELNLSVKDVTGFVLGGHGDDMVPLVRYSYAGGIPLETLIPKERIDAIVERTRKGGGEIVNLLGNGSAYYAPAASLTEMVEAILKDQRRVLPTIAYLEGEYGYEGIYLGVPTIVGGNGLEQIIELELTDYERAQLNKSVESVKNVMKVLS
notes: full-length, C-terminal His6 tag, pET24a, expressed in E. coli BL21(DE3), Ni-NTA and SEC; 33,643 Da printed
**Q.** For B4, which Km (purified protein [5]) is on record?
**A.** Its Km is 12 µM.

**Q.** What about the kcat (purified protein [5]) of the same molecule?
**A.** The kcat was 120 s⁻¹.
